Reference: publication PMC7404976

Biological target: MBP-Vip3Aa11(200-end), the C-terminal fragment of Vip3A toxin with an N-terminal 6xHis-MBP tag (Bacillus thuringiensis strain C9)
Assay: crystal structure; MBP-Vip3Aa(200-end) 7 mg/mL, hanging drop at 18 °C, 0.1 M sodium acetate pH 4.2, 0.5 M potassium formate, 0.1 M ammonium sulfate, 11% PEG4000; space group P21, four molecules in one asymmetric unit, 3.2 Å

“MBP-Vip3Aa11(200-end), the C-terminal fragment of Vip3A toxin with an N-terminal 6xHis-MBP tag (domain or fragment)” showed a stoichiometry N of 2.
